{
  "source": "paper PMC9002140",
  "about": "(Computational and Structural Biotechnology Journal, 2022)",
  "binders": {"B1": {"name": "R58E-IMPI (natural protein, Galleria mellonella)", "chain": "GMSIVLICNGGHEYYECGGACDNVCADLHIQNKTNCPIINIECNDKCYCEDGYARDVNGKCIPIKDCPKIRS"}, "B2": {"name": "I57F-IMPI (natural protein, Galleria mellonella)", "chain": "B1 chain with I41F, E42R"}},
  "key": {"[1]": {"biological_target": "T1, thermolysin from B. thermoproteolyticus Rokko (Bacillus thermoproteolyticus Rokko, UniProt P00800 233-548)", "T1 sequence (looked up)": "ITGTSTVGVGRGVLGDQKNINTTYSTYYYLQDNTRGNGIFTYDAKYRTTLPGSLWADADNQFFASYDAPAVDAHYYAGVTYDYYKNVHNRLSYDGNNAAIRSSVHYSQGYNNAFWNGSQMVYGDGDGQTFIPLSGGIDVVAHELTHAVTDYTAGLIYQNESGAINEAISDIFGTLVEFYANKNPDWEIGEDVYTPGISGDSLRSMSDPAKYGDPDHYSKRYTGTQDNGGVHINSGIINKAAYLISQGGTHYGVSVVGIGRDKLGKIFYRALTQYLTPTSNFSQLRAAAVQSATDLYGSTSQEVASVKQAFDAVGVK", "experiment": "cell-based or functional assay"}, "[2]": {"biological_target": "T2, aureolysin isoform I, mature catalytic domain (A209–E509) (Staphylococcus aureus (strain V8-BC10), UniProt P81177 209-509)", "T2 sequence (looked up)": "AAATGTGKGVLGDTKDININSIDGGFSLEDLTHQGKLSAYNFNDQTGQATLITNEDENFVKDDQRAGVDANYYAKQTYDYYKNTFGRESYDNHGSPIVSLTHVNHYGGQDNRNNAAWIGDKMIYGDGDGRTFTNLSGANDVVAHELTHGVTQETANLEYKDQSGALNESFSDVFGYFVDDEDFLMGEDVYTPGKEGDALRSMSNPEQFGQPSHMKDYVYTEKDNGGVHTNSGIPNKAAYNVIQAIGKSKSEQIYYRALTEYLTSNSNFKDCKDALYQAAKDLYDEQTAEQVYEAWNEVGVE", "experiment": "enzyme inhibition assay"}},
  "note": "Changes are numbered by the printed parent chain. Names may count otherwise.",
  "data": [
    {"binder": "B1", "values": [
      {"measurement": "inhibition of thermolysin, against the wild type", "setting": "[1]", "result": "~200", "unit": "fold"}
    ]},
    {"binder": "B2", "values": [
      {"measurement": "Ki", "setting": "[2]", "result": 346, "unit": "nM"}
    ]}
  ]
}
